Where two headings read alike, the source gives them in different places.
How the values were obtained:
Test in all cases: MST
[1] = target: T1, Mlh1-FKBP464 (Complex #2 subunit);Pms1-FRB627 (Complex #2 subunit) (Saccharomyces cerevisiae (baker's …, UniProt P38920;P14242 1-464+=GS+P62942:2-108+=GS+465-769;1-627+=[…]+628-873, internal_change|internal_change)
[2] = target: T2, Mlh1-FRB355,FKBP464 (Complex #1 subunit);Pms1 (Saccharomyces cerevisiae (baker's …, UniProt P38920;P14242 1-355+=[…]+356-464+=GS+P62942:2-108+=GS+465-769;1-873, internal_change|)
Mlh1;Pms1 [3] = target: T3, Mlh1;Pms1 (Saccharomyces cerevisiae (baker's …, UniProt P38920;P14242 1-769;1-873, |))
[4] = target: T4, Mlh1-FRB355 (Complex #5 subunit);Pms1-FKBP460 (Complex #5 subunit) (Saccharomyces cerevisiae (baker's …, UniProt P38920;P14242 1-355+=[…]+356-769;1-460+=GS+P62942:2-108+=GS+461-873, internal_change|internal_change)
[5] = target: T1, Mlh1-FKBP464 (Complex #2 …); remark: listed apart in the source
[6] = target: T2, Mlh1-FRB355,FKBP464 (Complex #1 …); remark: listed apart in the source
Mlh1;Pms1 [7] = target: T3, Mlh1;Pms1; remark: listed apart in the source
[8] = target: T1, Mlh1-FKBP464 (Complex #2 …); remark: listed apart in the source
[9] = target: T2, Mlh1-FRB355,FKBP464 (Complex #1 …); remark: listed apart in the source
Mlh1;Pms1 [10] = target: T3, Mlh1;Pms1; remark: listed apart in the source
[11] = target: T4, Mlh1-FRB355 (Complex #5 …); remark: listed apart in the source
[12] = target: T1, Mlh1-FKBP464 (Complex #2 …); remark: listed apart in the source
Mlh1;Pms1 [13] = target: T3, Mlh1;Pms1; remark: listed apart in the source

B1: homoduplex AO4549/AO4548 (48-mer in Methods, called 49 bp in Results) (dsDNA)
DNA 1: CTGGACGGGTTAAGACCGAACGTGGCTCCAGAAACGGGTGCAACTGGG
DNA 2: CCCAGTTGCACCCGTTTCTGGAGCCACGTTCGGTCTTAACCCGTCCAG
Question: B1 was tested. Which Kd [1] did it give?
Answer: 431 nM

Question: And the Kd [2]?
Answer: 421 nM

Question: What about the Kd (Mlh1;Pms1 [3]) of the same binder?
Answer: 675 nM

Question: And the Kd [4]?
Answer: 556 nM

Question: What about the Kd [5] of the same binder?
Answer: 211 nM

Question: What about the Kd [6] of the same binder?
Answer: 198 nM

Question: And the Kd (Mlh1;Pms1 [7])?
Answer: 173 nM

Question: What about the Kd [8] of the same binder?
Answer: 207 nM

Question: And the Kd [9]?
Answer: 98.4 nM

Question: And the Kd (Mlh1;Pms1 [10])?
Answer: 141 nM

Question: What about the Kd [11] of the same binder?
Answer: 287 nM

Question: What about the Kd [12] of the same binder?
Answer: 391 nM

Question: And the Kd (Mlh1;Pms1 [13])?
Answer: 628 nM

From paper PMC8450099
